Experimental data as given in patent US20220204643A1 (published 2022).

Experiments:
Assay in all cases: protein array
[1] = target: T1, microtubule associated scaffold protein 2, transcript variant 2 (human, UniProt Q5JR59 1040-1369)
T1 construct: on protein array; also called MTUS2
T1 sequence: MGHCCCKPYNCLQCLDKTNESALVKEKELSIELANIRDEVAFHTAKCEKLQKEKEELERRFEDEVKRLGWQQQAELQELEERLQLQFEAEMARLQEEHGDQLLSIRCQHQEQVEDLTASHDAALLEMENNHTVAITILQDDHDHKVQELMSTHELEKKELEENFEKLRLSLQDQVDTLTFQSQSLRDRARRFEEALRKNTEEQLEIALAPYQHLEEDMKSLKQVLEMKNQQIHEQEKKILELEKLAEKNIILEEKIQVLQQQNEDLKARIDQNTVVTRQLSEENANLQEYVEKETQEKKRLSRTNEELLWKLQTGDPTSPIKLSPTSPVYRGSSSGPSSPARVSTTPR

[2] = target: T2, SAS-6 centriolar assembly protein, transcript variant 2 (human, UniProt Q6UVJ0 168-657)
T2 construct: on protein array; also called SASS6
T2 sequence: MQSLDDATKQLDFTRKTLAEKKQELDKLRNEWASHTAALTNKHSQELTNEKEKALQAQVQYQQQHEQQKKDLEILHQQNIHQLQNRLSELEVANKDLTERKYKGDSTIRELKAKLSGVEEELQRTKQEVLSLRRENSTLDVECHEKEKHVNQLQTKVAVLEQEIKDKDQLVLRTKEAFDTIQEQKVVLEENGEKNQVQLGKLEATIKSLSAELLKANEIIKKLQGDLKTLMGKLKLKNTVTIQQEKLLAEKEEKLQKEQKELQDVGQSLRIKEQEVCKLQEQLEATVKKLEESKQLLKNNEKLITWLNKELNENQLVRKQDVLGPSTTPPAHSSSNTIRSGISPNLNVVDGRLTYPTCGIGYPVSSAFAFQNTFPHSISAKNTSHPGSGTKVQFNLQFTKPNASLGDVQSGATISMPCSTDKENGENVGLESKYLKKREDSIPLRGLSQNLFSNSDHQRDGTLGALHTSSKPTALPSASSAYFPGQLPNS

[3] = target: T3, arginine and glutamate rich 1 (human, UniProt Q9NWB6 1-273)
T3 construct: on protein array; also called ARGLU1
T3 sequence: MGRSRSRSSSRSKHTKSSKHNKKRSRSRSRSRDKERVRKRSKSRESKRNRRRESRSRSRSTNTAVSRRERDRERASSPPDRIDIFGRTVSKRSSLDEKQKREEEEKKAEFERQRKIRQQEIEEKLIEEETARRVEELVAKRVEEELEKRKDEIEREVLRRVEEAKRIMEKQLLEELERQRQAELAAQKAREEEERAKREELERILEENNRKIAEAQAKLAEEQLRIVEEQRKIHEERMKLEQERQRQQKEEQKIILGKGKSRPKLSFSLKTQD

Bcl2 like 1 = target: T4, Bcl2 like 1 (human, UniProt Q07817 1-233)
T4 construct: on protein array; also called BCL2L1
T4 sequence (Q07817 whole entry): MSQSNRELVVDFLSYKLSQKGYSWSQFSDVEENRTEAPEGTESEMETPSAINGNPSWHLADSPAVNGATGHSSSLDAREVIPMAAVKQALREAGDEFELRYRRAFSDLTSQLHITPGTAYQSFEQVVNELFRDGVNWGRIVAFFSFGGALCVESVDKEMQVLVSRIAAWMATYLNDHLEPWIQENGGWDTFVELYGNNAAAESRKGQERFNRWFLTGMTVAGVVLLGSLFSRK

[4] = target: phosphodiesterase 5A, transcript variant 1 (human, UniProt O76074 1-875)
zinc finger protein 296 = target: T5, zinc finger protein 296 (human, UniProt Q8WUU4 1-475)
T5 construct: on protein array; also called ZNF296
T5 sequence: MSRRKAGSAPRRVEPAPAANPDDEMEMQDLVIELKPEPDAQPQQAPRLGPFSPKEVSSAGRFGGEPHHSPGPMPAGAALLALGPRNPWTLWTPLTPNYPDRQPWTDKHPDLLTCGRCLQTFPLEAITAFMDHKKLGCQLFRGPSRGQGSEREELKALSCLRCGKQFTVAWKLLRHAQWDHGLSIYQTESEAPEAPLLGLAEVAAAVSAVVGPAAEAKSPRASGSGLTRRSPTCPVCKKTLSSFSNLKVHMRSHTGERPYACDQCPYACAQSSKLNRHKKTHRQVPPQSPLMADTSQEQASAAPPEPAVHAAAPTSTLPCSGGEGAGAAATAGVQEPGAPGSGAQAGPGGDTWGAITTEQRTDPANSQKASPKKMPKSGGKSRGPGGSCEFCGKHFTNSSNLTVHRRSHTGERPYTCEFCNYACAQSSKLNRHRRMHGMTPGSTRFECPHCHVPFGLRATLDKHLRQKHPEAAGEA

[5] = target: T6, RAN binding protein 10, transcript variant 1 (human, UniProt Q6VN20 2-620)
T6 construct: on protein array; also called RANBP10
T6 sequence (Q6VN20 2-620 limits assumed, change not shown): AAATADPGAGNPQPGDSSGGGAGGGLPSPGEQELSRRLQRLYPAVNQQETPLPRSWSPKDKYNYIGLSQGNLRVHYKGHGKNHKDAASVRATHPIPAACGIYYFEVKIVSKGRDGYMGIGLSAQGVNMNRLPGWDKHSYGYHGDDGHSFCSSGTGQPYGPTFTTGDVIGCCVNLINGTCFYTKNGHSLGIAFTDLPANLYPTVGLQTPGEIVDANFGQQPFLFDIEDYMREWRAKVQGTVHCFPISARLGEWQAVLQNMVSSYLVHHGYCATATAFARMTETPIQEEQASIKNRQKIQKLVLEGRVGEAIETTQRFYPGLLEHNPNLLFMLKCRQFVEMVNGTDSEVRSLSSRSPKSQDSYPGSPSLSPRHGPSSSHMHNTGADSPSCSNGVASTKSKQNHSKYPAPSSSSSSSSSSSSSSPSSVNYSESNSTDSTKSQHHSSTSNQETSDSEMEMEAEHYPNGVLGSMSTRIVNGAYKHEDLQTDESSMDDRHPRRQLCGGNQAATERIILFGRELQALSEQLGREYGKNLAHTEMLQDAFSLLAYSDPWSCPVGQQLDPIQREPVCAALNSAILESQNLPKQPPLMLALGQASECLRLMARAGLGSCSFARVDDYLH

ubiquilin 2 = target: T7, ubiquilin 2 (human, UniProt Q9UHD9 2-624)
T7 construct: on protein array; also called UBQLN2
T7 sequence (Q9UHD9 2-624 limits assumed): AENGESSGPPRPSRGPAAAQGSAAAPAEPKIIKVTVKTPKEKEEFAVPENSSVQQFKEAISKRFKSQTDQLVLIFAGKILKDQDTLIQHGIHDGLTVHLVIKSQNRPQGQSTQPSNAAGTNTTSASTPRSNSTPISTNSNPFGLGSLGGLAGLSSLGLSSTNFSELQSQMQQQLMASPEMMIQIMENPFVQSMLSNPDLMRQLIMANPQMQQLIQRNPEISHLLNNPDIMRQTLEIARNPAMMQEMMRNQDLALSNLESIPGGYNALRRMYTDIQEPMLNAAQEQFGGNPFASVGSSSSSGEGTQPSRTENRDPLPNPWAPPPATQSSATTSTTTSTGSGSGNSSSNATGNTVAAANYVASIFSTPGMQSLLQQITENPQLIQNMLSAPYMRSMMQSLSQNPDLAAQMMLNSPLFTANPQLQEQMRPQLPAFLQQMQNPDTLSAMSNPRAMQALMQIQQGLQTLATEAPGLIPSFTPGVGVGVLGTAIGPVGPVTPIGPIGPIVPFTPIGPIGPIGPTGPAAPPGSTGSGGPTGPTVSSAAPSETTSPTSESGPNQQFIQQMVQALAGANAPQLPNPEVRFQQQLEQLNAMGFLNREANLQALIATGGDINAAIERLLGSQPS

[6] = target: T8, ubiquilin 1, transcript variant 2 (human, UniProt Q9UMX0 2-589)
T8 construct: on protein array; also called UBQLN1
T8 sequence (Q9UMX0 other isoform, or with tags, fused parts or gaps mutant limits assumed): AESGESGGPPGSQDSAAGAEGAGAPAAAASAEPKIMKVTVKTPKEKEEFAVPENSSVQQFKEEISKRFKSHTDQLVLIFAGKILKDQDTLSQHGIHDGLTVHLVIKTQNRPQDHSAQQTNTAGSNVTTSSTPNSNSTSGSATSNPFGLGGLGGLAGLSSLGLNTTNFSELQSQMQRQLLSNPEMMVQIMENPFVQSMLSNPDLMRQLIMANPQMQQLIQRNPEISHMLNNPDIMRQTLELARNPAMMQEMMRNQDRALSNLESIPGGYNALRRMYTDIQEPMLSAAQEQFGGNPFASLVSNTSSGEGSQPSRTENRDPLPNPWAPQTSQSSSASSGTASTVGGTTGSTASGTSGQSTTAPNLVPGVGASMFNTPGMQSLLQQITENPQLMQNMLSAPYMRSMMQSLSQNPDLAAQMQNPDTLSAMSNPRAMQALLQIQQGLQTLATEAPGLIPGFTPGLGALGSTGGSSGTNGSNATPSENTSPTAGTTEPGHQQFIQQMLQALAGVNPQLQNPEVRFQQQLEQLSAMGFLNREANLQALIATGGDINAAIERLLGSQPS

Ubiquilin 3 = target: T9, Ubiquilin 3 (human, UniProt Q9H347 1-655)
T9 construct: on protein array; also called UBQLN3
T9 sequence: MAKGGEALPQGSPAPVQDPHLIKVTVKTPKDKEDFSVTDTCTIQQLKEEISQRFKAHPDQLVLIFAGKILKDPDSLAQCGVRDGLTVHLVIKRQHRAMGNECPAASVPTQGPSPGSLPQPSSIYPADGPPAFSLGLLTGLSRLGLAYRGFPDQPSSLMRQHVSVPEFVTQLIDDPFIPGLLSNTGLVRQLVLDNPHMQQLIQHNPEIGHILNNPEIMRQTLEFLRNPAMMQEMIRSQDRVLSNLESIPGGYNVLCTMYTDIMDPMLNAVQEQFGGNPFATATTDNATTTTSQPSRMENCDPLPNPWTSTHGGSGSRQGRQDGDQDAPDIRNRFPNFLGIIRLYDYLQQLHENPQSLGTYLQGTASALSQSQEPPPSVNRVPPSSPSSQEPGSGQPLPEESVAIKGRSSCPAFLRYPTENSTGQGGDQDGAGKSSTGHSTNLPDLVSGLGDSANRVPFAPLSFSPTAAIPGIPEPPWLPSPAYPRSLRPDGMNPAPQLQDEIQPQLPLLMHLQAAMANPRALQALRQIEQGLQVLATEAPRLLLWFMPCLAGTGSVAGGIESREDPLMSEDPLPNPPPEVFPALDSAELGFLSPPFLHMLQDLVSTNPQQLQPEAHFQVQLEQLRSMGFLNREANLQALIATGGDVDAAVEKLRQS

[7] = target: T10, hydroxymethylbilane synthase, transcript variant X3 (human, UniProt P08397 18-361)
T10 construct: on protein array; also called HMBS; IAMBS
T10 sequence: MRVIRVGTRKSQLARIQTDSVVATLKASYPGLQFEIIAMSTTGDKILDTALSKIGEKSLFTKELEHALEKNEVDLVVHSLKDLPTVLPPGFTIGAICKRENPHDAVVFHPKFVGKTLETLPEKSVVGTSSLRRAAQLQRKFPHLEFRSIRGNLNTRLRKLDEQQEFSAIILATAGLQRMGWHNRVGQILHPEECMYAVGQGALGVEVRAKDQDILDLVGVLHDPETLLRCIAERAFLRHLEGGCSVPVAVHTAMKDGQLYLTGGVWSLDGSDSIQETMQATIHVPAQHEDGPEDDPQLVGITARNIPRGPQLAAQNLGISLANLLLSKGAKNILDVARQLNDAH

[8] = target: T11, hook microtubule tethering protein 2, transcript variant 2 (human, UniProt Q96ED9 1-719)
T11 construct: on protein array; also called HOOK2
T11 sequence: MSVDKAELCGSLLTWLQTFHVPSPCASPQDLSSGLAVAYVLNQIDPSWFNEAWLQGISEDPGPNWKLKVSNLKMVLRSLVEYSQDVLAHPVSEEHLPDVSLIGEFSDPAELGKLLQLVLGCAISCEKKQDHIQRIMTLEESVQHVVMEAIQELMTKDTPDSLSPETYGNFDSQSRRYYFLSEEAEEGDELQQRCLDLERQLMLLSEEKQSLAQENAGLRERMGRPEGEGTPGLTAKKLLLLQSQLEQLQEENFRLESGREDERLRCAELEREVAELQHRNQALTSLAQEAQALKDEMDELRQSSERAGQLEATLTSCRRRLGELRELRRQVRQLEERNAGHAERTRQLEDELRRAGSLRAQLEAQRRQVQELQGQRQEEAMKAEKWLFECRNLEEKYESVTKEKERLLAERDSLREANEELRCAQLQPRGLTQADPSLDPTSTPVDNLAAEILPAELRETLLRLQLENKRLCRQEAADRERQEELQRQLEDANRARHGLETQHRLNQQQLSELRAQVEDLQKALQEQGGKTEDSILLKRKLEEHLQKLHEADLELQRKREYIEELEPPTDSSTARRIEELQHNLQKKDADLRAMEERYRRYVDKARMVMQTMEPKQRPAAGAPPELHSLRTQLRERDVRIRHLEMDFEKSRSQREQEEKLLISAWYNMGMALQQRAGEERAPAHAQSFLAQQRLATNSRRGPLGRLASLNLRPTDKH

[9] = target: T12, anterior gradient 3, protein disulphide isomerase family member (human, UniProt Q8TD06 22-166)
T12 construct: on protein array; also called AGR3
T12 sequence: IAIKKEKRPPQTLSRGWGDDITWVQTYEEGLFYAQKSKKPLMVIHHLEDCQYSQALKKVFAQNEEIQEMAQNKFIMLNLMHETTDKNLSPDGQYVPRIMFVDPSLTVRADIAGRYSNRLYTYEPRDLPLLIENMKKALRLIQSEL

B1: TMEL1027 (antibody, V domains shown)
VH: QVQLVQSGAEVKKPGASVKVSCKASGYTFTVYYMHWVRQAPGQGLEWMGRINPNSGGTNYAQKFQGRVTMTRDTSISTAYMELSRLTSDDTAVYYCARVVVVGTDYGMDVWGQGTTVTVSS
VL: VSSELTQDPAVSVALGQTVRITCQGDSLRSYYASWYQQRPGQAPVLVIYGKNNRPSGIPDRFSGSSSGNTASLTITGAQAEDEADYYCNSRDSSGNHVFGTGTKVTVLG
notes: VH/VL tied via antigen in summary, not by name in this stretch
binding result [1]: binds

B2: TMEL1031 (antibody, V domains shown)
VH: EVQLVESGGGLVQPGGSLRLSCAASGFTVSSNYMSWVRQAPGKGLEWVSVIYSGGSTYYADSVKGRFTISRDNSKNTLSLQMNSLRAEDTAVYYCARESSAAGYDYWGQGTLVTVSS
VL: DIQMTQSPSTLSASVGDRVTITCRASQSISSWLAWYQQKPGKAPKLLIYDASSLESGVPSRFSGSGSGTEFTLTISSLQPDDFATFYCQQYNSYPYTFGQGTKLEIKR
notes: as for B1
binding result [2]: binds
binding result [3]: binds

B3: TMEL1030 (antibody, V domains shown)
VH: QVQLQESGPGLVKPSGTLSLTCAVSGGSISSSNCWSWVRQPPGKGLEWLGEICHSGSTSYNPSLKSRVTISVDKSKNQFSLKLRSVTAADTAVYYCARESPLTVVFDYWGQGTLVTVSS
VL: DIQMTQSPSSLSASVGDRVTITCRASQGIRNDLGWFQQKPGKAPKRLIYAASNLPSGVSSRFSGSGSGTEFTLTISSLQPEDFATYYCLQHNNYPLTFGQGTKVEFKR
notes: as for B1
binding result (Bcl2 like 1): binds

B4: TMEL1028 (antibody, V domains shown)
VH: QVQLVQSGAEVKKPGASVKVSCKASGYTFTSYGISWVRQAPGQGLEWMGWISAYNGNTNYAQKLQGRVTMTTDTSTSTAYMELRSLTSDDTAVYYCARDQGLERANWFDPWGQGTLVTVSS
VL: not shown
notes: as for B1
binding result [4]: binds
binding result (zinc finger protein 296): binds

B5: TMEL1017 (antibody, V domains shown)
VH: EVQLVESGGGLVKPGGSLRLSCAASGFTFSNYNMNWVRQAPGKGLEWVSSISSSSSYIYYADSVKGRFTISRDNAKNSLYLQMNSLRAEDTAVYYCARDALDFDWLLSAGGFDYWGQGTLVTVSS
VL: ASALTQPASVSGSPGQSITISCTGTSSDVGGYNYVSWYQQHPGKAPKLMIYEVSNRPSGVSNRFSGSKSGNTASLTISGLQAEDEADYYCSSYTSSSTLVFGGGTKLTVLG
notes: as for B1
binding result [5]: binds

B6: TMEL1018 (antibody, V domains shown)
VH: PLQLQESGPGLVKPSETLSLTCTVSGGSISSSSYYWGWIRQPPGKGLEWIGSIYYSGSTYYNPSLKSRVTISVDTSKNQFSLKLSSVTAADTAVYSCARLLVGGAFDIWGQGTMVTVSS
VL: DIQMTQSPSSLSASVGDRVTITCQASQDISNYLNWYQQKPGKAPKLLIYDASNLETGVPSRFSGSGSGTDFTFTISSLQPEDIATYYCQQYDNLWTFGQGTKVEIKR
notes: as for B1
binding result (ubiquilin 2): binds
binding result [6]: binds
binding result (Ubiquilin 3): binds

B7: TLUS1006 (antibody, V domains shown)
VH: PVHLVQSGAEVRKPGSSVKVSCMASGGSFNTYAVNWVRQAPGQGLEWMGGIIPVFGTTNYAPRFQGRVTITADESTSTVYMELTSLTSEDTAVYYCARDRDSGYERNCLDPWGQGTLVTVSS
VL: DIVMTQSPDSLAVTLGERATINCRSSQTVLYDSNNKNYLAWYQQKPGQPPKLLIYWASIRESGVPDRFSGSGSGTDFTLTINTLQAEDVAIYFCQQYFTTPRTFGQGTKVEIKR
notes: as for B1
binding result [7]: binds
binding result [8]: binds

B8: TMEL1020 (antibody, V domains shown)
VH: QVHLVQSGAEVKKPGASVKVSCKASGYTFTNYFIHWVRQAPGQGPEWMGVINPSFGSTTYAQKLQGRVTMTRETSTSTVYMELSSLRSEDTAVYYCARESLDSASYSTIAHWGQGTLVTVSS
VL: EIVLAQSPGTLYLSPGERATLSCRASQSVRGNYLAWYQQRPGQAPRLLIYGASSRATGIPDRFGGSGSGTDFTLTITRLLPEDFAVYYCHQYGSSPRTFGQGTKVEIKR
notes: as for B1
binding result [9]: binds
